Four molecules from patent US8809529B2, “Imidazo[1,2-α]pyrazine derivatives” (Promega Corporation, priority 2010, dated 2014) can be followed below.

The target of data set [1] is T1, L27V02 enzyme (Oplophorus gracilirostris, UniProt Q9GV45, A31E/A60N/A81I/F95D/I117V/K70R/L54V/L99Q/M102K/N193R/P142E/Q151K/Q38R/Q45L/V71I/Y165I).
T1 construct: The N-terminus of the OgLuc variant L27V is methionine, valine and phenylalanine, i.e., MVF; made in house
Briefly: Luminescence of compounds with purified L27V02 enzyme. To be noted: 20 μM compound, 36 pM L27V02, pH 7, 3 min. Type of data set: biochemical. As for the experimental part: Compounds PBI-4525, PBI-4540 and PBI-4541 were screened for their ability to detect luminescence. […] The assay reagent was then mixed with 36 pM purified L27V02 enzyme (described in Example 25B), in DMEM without Phenol Red and 0.1% PRIONEX®. As a control, assay buffer with 20 μM PBI-3939 or PBI-4528 was used. Luminescence was measured as previously described 3 min after the assay reagent was added to the enzyme mixture.

Data set [2] deals with T2, OgLuc variant 9B8 opt (Oplophorus gracilirostris, UniProt Q9GV45, A31E/A60K/A81I/F95Y/I117V/L99Q/M102K/N193R/P142E/Q151K/Q38R/Q45L/V71I/Y165I).
T2 construct: made in house; host or cells: E. coli (crude lysate)
Briefly: Multiplex assay with red click beetle luciferase and 9B8 opt (modified DUAL-GLO). It counts as biochemical. As for the experimental part: A. Lysates of E. coli expressing the variant 9B8 opt were prepared as previously described in Example 27 and diluted 1000-fold in DMEM without phenol red+0.1% PRIONEX®. Luminescence from a sample containing 6.3 μg/mL of purified red click beetle luciferase and E. coli lysate expressing the variant 9B8 opt was detected using a modified DUAL-GLO® Luciferase Assay System (Promega Corp.). DUAL-GLO® STOP&GLO® Reagent containing 20 μM coelenterazine-h and DUAL-GLO® STOP&GLO® Reagent containing 20 μM PBI 3939 were used, according to the manufacturer's protocol, to detect the red click beetle luciferase and OgLuc variant 9B8 luciferase from a single sample. Three replicates were performed.
Luminescence was detected on a Turner MODULUS™ luminometer. […] The standard deviation (“+/−”) and coefficient of variance (“CV”) are also shown. A “no coelenterazine” control was performed to illustrate the amount of quenching of the red click beetle signal by the DUAL-GLO® STOP&GLO® Reagent of the DUAL-GLO® Luciferase Assay System in the absence of coelenterazine. The “no coelenterazine” control yielded a 349-fold quench.

In data set [3] the test system is HEK293 cells. In words: Toxicity of coelenterazines in HEK293 cells (CELLTITER-GLO). To be noted: 24 hrs after compound addition.
Data set [4] in a line: Stability of coelenterazines in reporter reagent buffer (T90). The settings on record: time for luminescent signal to decay by 10% at 22° C.; read with OgLuc variant IV lysate.
In data set [5] the test system is cAMP response element (CRE). In words: CRE transcriptional reporter, forward transfection, HEK293 cells. Type of data set: cell-based, human. Further details: Response: scale not given here. To be noted: for baseline: 10 nM FSK; for baseline / RLU (10 μM FSK): 3 h. As for the experimental part:
HEK293 cells were plated at 15,000 cells/well in six 96-well tissue culture plates. Cells were grown in 100 μL of DMEM+10% FBS+1× non-essential amino acids (NEAA) and incubated overnight at 37° C. The cells were transiently transfected with either 10 ng or 100 ng plasmid DNA/well of pGL4.29 9B8 opt, pGL4.29 9B8 opt-P, or pGL4.29. Plasmid DNA was mixed with 850 μL of OPTI-MEM® (Invitrogen) and 32.4 μL of FUGENE® HD transfection reagent (Promega Corp.) and incubated at room temperature for 10 min. Eight μL of the transfection/reporter DNA mixture was added to the appropriate wells (2 constructs/plate). Cells were incubated for 4 hrs at 37° C. The medium was replaced with OPTI-MEM®+0.5% dialyzed FBS+1×NEAA+1× sodium pyruvate+1× Penn-Strep and incubated overnight at 37° C.
A lytic reagent containing 100 mM MES pH 6.1, 1 mM CDTA, 150 mM KCl, 35 mM thiourea, 2 mM DTT, 0.25% TERGITOL® NP-9 (v/v), 0.025% MAZU® DF 204, and 20 μM PBI-3939 was added to the cells containing pGL4.29 9B8 opt or pGL4.29 9B8 opt-P and allowed to incubated for 10 min at room temperature (100 μL lytic reagent added to 100 μL cells). ONE-GLO™ assay reagent (Promega Corp.) was added to cells containing pGL4.29 and used according to the manufacturer's protocol (100 μL reagent added to 100 μL cells). Luminescence was measured on a GLOMAX® Luminometer.

Data set [6] deals with antioxidant response element (ARE). In words: ARE transcriptional reporter, reverse transfection, HEK293 cells. Type of data set: cell-based, human. To be noted: for baseline: 24 h, 100 ng DNA. As for the experimental part: HEK293 cells were trypsinized (T75 flask, 3 mL trypsin) and resuspended in […] (approximately 8.9×10^6 total cells) in medium containing DMEM+10% FBS+1×NEAA. Each transcriptional reporter was prepared for transfection by mixing 1.2 mL OPTI-MEM®, 12 μL transcription reporter DNA (100 ng) and 36 μL FUGENE® HD transfection reagent together and incubated at room temperature for 35 min. Following incubation, 624 μL of the transfection/reporter DNA mixture was added to 12 mL of cell suspension and mixed by inversion. After mixing, 100 μL of the cell/DNA mixture was added to wells of a 96-well plate (2 constructs/plate). The cells were incubated at 37° C. for 22 hrs. Tert-butylhydroquinone (a Nrf2 stabilizer; tBHQ; 1 μM (“baseline”) or 20 μM) or sulphoraphane, (an organosulfer antioxidant known to activate Nrf2; 1 μM (“baseline”) or 20 μM) in OPTI-MEM® was added to each well and incubated at 37° C. for 24 hrs. Cells were lysed with 100 μL lytic reagent as described above for the forward transfection. Luminescence was measured on a GLOMAX® Luminometer.

Data set [7] deals with CRE. Briefly: CRE transcriptional reporter, bulk transfection, HEK293 cells. Type of data set: cell-based, human. On the procedure: (§1) The transcriptional reporter containing […] and 9B8 opt-P was used in the bulk transfection of HeLa cells
(§2) HEK293, NIH3T3, or HeLa cells were plated to a single well of a 6-well tissue culture plate the day before transfection at a density of 4.5×10^5 cells/well in 3 mL complete medium (DMEM+10% FBS+1×NEAA+1× sodium pyruvate) for HEK293 cells, 3×10^5 cellsNvell in 3 mL complete medium (DMEM+10% fetal calf serum (FCS)+1×NEAA+1× sodium pyruvate) for NIH3T3 cells, or 9.9×10^5 cells/well in 3 mL complete medium (DMEM+10% FBS+1×NEAA) for HeLa cells. Cells were grown overnight at 37° C.
(§3) 3,300 ng of reporter plasmid DNA in 155 4 OPTI-MEM® was mixed with 9.9 μL FUGENE® HD transfection reagent, vortexed briefly, and incubated at room temperature for 10 min. The CRE transcriptional reporters were used to transfect HEK293 and NIH3T3 cells. The HRE transcriptional reporters were used to transfect HeLa cells. The reporter mixture was added to cells and mixed by gentle rocking followed by incubation at 37° C. for 6 hrs (HEK293 and NIH3T3) or 3 hrs (HeLa). Cells were then trypsinized and resuspended in medium (DMEM+10% FBS+1×NEAA+1× sodium pyruvate for HEK293 cells, DMEM+10% FCS+1×NEAA+1× sodium pyruvate for NIH3T3 cells, or DMEM+10% FBS+1×NEAA for HeLa cells), followed by plating to the individual wells of a 96-well plate (20,000 cells/100 μL for HEK293, 10,000 cells/100 4 for NIH3T3, or […] for HeLa) and incubated at 37° C. overnight.
(§4) FSK (CRE stimulator) or 17-AAG (HRE stimulator; 17-Allylamino-demethoxy geldanamycin) in OPTI-MEM® was added to the cells (10 nM or 10 μM final concentration for FSK; 1 nM or 1 μM final concentration for 17-AAG) and incubated at 37° C. for 4 hrs (FSK) or 6 hrs (17-AAG). Plates were removed from the incubator and allowed to equilibrate to room temperature for 25 min. Cells were lysed with 100 μL lytic reagent as described above for the forward transfection. Luminescence was measured on a GLOMAX® Luminometer.

The test system of data set [8] is CRE. Briefly: CRE transcriptional reporter, bulk transfection, NIH3T3 cells. Type of data set: cell-based. As for the experimental part: as §1, §2, §3, §4
Data set [9] relates to heat shock response element (HRE). Briefly: HRE transcriptional reporter, bulk transfection, HeLa cells. Type of data set: cell-based. As for the experimental part:
as §1, §2, §3, §4

Data set [10] has as its system antioxidant response element (ARE). In words: ARE transcriptional reporter, reverse transfection, HEK293 cells. Type of data set: cell-based, human. To be noted: 24 h, 100 ng DNA.

T1 sequence (Q9GV45 28-196 with tags or gaps with the stated changes limits assumed, one chain of several): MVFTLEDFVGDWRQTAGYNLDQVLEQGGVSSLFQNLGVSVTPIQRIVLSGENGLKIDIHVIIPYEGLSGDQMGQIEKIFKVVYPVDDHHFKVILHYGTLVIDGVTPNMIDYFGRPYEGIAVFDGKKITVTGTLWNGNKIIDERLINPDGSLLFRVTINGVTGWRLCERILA

For the molecule `Cn1ccnc1CC1=NC2=C(Cc3ccccc3)NC(c3ccccc3)(c3ccc(O)cc3)CN2C1=O` (stereo not drawn) [PBI-4540, 8-benzyl-6-(4-hydroxyphenyl)-2-((1-methyl-1H-imidazol-2-yl)methyl)-6-phenylimidazo[1,2-a]pyrazin-3(7H)-one], the RLU in data set [1] is reported as 909 RLU.
Still for that read-out and setting: then `O=c1c(Cc2ncc[nH]2)nc2c(Cc3ccccc3)[nH]c(-c3ccccc3)cn1-2` [PBI-4541, 2-((1H-imidazol-2-yl)methyl)-8-benzyl-6-phenylimidazo[1,2-a]pyrazin-3(7H)-one], with 5,676 RLU.
For “coelenterazine-h [Coelenterazine h, reference compound]”, the “Ogluc (average luminescence generated by 9B8 opt)” value in data set [2] (20 μM substrate in DUAL-GLO STOP&GLO Reagent) is 921,440. For the same molecule, the “+/− coel” value in data set [2] (Ogluc signal relative to no coelenterazine control) was 64. Further, in data set [3], the “Viability (normalized to vehicle (DMSO) control) (%)” value is reported as 100%. Moreover, the “Stability (pH 8) (T90 in hrs)” value in data set [4] was 2.1 hrs.

B1: 9B8 opt-P: 9B8 opt further comprising the PEST protein degradation sequence (protein)
chain: MVFTLEDFVGDWRQTAGYNLDQVLEQGGLSSLFQKLGVSVTPIQKIVLSGENGLKIDIHVIIPYEGLSGYQMGQIEKIFKVVYPVDDHHFKVILHYGTLVIDGVTPNMIDYFGRPYEGIAVFDGKKITVTGTLWNGNKIIDERLINPDGSLLFRVTINGVTGWRLCERILANSHGFPPEVEEQAAGTLPMSCAQESGMDRHPAACASARINV
As to B1, the Response in [5] (10 ng DNA for transfection) came out at 121; in data set [5] (100 ng DNA for transfection), 168; in data set [6] (sulphoraphane) it was 15; in [6] (tBHQ) it was 27; in [7] (HEK293, FSK), 116; in data set [8] (NIH3T3, FSK), 9. For the same molecule, the Response in [9] (17-AAG) stood at 12. The baseline in data set [5] (10 ng DNA for transfection) was 11179; in [5] (100 ng DNA for transfection) it was 122,071; in [6] (1 μM sulphoraphane), 258,406; in data set [6] (1 μM tBHQ), 317,238; in data set [7] (HEK293, 10 nM FSK, 4 h), 3,960,000; in data set [8] (NIH3T3, 10 nM FSK, 4 h), 410,461. The baseline in [9] (6 h) is 278,118. In addition, the figures for the “RLU (10 μM FSK)” value in data set [5] (10 ng DNA for transfection) and in [5] (100 ng DNA for transfection) were 1,353,459 RLU and 20,544,753 RLU, respectively. In addition, the “RLU (10 mM FSK)” value in data set [7] (HEK293, 4 h) was 460,000,000 RLU; in data set [8] (NIH3T3, 4 h), 3,720,000 RLU. For the same molecule, the “RLU (1 mM 17-AAG)” value in data set [9] (6 h) is listed as 3,204,000 RLU. Besides, the “RLU (20 μM sulphoraphane)” value in [10] is on record as 3,940,000 RLU. For the same molecule, the “RLU (20 μM tBHQ)” value in data set [10] was 8,460,000 RLU.
